Target: His6-tev-DPP9 (UniProt Q86TI2)
Experiment: SEC-MALS; co-eluting SEC fractions of FIIND, DPP9 and free UPA co-expressed in Sf9 and co-purified; 0.5-1.0 mg/ml, Superose 6 increase (10/300) GL, buffer A without glycerol

His6-tev-DPP9, sequence (Q86TI2 whole entry): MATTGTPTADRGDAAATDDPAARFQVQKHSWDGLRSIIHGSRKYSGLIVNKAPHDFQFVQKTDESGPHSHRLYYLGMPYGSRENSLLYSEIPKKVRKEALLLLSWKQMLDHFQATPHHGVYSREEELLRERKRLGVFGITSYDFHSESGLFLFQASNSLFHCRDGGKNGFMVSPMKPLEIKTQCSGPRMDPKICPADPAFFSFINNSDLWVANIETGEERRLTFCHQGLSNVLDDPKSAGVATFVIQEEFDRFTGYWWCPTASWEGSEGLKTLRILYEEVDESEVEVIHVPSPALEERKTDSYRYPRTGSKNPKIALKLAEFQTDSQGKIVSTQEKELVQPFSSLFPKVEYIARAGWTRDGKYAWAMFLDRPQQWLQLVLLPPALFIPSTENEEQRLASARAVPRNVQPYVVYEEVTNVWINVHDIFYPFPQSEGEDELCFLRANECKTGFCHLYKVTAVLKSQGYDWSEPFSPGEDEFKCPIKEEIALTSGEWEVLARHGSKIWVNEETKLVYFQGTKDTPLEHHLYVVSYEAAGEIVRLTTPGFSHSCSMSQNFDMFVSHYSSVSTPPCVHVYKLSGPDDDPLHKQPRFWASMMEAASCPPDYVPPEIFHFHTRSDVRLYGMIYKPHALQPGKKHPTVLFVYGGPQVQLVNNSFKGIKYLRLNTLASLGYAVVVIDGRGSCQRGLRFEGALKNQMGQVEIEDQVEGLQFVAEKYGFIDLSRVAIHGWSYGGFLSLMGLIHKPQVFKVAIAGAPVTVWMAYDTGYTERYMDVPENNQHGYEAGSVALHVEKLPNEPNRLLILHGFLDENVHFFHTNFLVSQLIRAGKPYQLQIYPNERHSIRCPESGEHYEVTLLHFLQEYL
free UPA domain (from the SUMO-UPA construct) (domain or fragment), sequence (Q9C000 whole entry, the tested form may be a part): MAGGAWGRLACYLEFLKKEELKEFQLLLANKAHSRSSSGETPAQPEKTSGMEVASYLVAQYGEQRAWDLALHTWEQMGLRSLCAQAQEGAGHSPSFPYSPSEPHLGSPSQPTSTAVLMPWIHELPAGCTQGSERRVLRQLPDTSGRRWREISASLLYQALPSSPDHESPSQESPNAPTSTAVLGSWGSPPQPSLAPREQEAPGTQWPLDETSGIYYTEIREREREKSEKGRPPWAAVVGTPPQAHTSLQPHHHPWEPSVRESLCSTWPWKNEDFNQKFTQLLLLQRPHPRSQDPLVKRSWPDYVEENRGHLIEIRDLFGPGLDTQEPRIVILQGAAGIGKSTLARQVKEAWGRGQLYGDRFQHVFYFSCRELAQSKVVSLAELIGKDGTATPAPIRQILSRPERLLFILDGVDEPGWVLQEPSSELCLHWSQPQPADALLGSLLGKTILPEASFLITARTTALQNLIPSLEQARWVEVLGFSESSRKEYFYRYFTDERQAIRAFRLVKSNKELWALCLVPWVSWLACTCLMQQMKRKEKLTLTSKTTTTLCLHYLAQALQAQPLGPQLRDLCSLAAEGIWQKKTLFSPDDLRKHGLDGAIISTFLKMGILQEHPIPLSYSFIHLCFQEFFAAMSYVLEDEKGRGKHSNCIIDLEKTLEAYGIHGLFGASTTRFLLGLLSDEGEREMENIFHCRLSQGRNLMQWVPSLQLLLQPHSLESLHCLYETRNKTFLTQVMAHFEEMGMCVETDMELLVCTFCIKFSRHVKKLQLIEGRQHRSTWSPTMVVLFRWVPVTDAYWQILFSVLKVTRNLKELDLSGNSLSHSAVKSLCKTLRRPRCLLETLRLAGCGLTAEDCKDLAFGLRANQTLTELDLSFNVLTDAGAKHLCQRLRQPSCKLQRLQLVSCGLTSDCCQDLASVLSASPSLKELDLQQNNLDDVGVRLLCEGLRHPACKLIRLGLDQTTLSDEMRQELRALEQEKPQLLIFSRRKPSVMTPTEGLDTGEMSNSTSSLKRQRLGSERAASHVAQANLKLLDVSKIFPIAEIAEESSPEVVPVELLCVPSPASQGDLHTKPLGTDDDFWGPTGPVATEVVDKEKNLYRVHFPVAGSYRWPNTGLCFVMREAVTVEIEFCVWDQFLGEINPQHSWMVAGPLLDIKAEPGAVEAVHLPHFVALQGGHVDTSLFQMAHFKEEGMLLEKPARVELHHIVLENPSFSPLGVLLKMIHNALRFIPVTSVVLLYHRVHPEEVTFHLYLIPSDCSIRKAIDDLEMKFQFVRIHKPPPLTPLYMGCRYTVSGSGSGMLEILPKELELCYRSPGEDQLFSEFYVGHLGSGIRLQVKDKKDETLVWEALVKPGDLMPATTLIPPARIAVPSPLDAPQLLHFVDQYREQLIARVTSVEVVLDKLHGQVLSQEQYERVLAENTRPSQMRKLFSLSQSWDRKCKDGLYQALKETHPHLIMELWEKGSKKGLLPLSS

stoichiometry N (UPA per DPP9 dimer): 1
Substance: free UPA domain (from the SUMO-UPA construct) (domain or fragment)

Reference: article PMC9700037
